# Measured values as given in publication PMC3364216, “The RuvA Homologues from Mycoplasma genitalium and Mycoplasma pneumoniae Exhibit Unique Functional Characteristics”.
# B1: HJ 1.1 (structured_DNA)
# DNA 1: GCGACGTGATCACCAGATGATTGCTAGGCATGCTTTCCGCAAGAGAAGC
# DNA 2: GGCTTCTCTTGCGGAAAGCATGCCTAGCAATCCTGTCAGCTGCATGGAAC
# DNA 3: GGTTCCATGCAGCTGACAGGATTGCTAGGCTCAAGGCGAACTGCTAACGG
# DNA 4: ACCGTTAGCAGTTCGCCTTGAGCCTAGCAATCATCTGGTGATCACGTCGC
# Biological target: RuvAMge;RecUMge (Mycoplasma genitalium G37 (ATCC …, UniProt Q49424;Q49422 1-205;1-166, |))
# Assay: EMSA; 0.5 uM RecUMge preincubated, then RuvAMge; all RecU-HJ complexes shifted at 4 uM; 20 mM Tris-HCl pH 7.5, 1 mM DTT, 1 mM EDTA, 12.3 nM DNA, 10 ul, on ice 10 min; 8% PAGE in 0.5x TBE; +/- 10 mM Mg2+
binder,measurement,value
B1,binding result,binds
